{"source": "the supplement of paper PMC10567573", "parents": {"B1": {"name": "KLHL12 (parent)", "chain": "LDYTADEDGVWYSVAPMNVRRGLA"}, "B2": {"name": "KLHL13 (parent)", "chain": "GVSKVGLRKIIDFIYTAKLSLNMD"}}}
{"variants_of": "B1", "assay": "protein stability index of a GFP-peptide fusion (GPS, HEK-293T) (PSI 1-6); higher = more stable", "conditions": "c terminus: a fixed tail appended"}
{"variant": "LEYTADEDGVWYSVAPMNVRRGLA", "note": "[D2E]", "protein stability index": 1.76}
{"variant": "LQYTADEDGVWYSVAPMNVRRGLA", "note": "[D2Q]", "protein stability index": 1.47}
{"variant": "LRYTADEDGVWYSVAPMNVRRGLA", "note": "[D2R]", "protein stability index": 1.93}
{"variant": "LAYTADEDGVWYSVAPMNVRRGLA", "note": "[D2A]", "protein stability index": 2.3}
{"variant": "LTYTADEDGVWYSVAPMNVRRGLA", "note": "[D2T]", "protein stability index": 1.49}
{"variant": "LPYTADEDGVWYSVAPMNVRRGLA", "note": "[D2P]", "protein stability index": 2.48}
{"variant": "LCYTADEDGVWYSVAPMNVRRGLA", "note": "[D2C]", "protein stability index": 2.46}
{"variant": "LIYTADEDGVWYSVAPMNVRRGLA", "note": "[D2I]", "protein stability index": 1.37}
{"variant": "LYYTADEDGVWYSVAPMNVRRGLA", "note": "[D2Y]", "protein stability index": 2.43}
{"variant": "LKYTADEDGVWYSVAPMNVRRGLA", "note": "[D2K]", "protein stability index": 1.68}
{"variant": "LFYTADEDGVWYSVAPMNVRRGLA", "note": "[D2F]", "protein stability index": 1.98}
{"variant": "LLYTADEDGVWYSVAPMNVRRGLA", "note": "[D2L]", "protein stability index": 1.55}
{"variant": "LSYTADEDGVWYSVAPMNVRRGLA", "note": "[D2S]", "protein stability index": 1.84}
{"variant": "LMYTADEDGVWYSVAPMNVRRGLA", "note": "[D2M]", "protein stability index": 2.4}
{"variant": "LHYTADEDGVWYSVAPMNVRRGLA", "note": "[D2H]", "protein stability index": 1.67}
{"variant": "LNYTADEDGVWYSVAPMNVRRGLA", "note": "[D2N]", "protein stability index": 1.74}
{"variant": "LWYTADEDGVWYSVAPMNVRRGLA", "note": "[D2W]", "protein stability index": 2.19}
{"variant": "LGYTADEDGVWYSVAPMNVRRGLA", "note": "[D2G]", "protein stability index": 2.96}
{"variant": "LDYTEDEDGVWYSVAPMNVRRGLA", "note": "[A5E]", "protein stability index": 2.14}
{"variant": "LDYTDDEDGVWYSVAPMNVRRGLA", "note": "[A5D]", "protein stability index": 2.76}
{"variant": "LDYTCDEDGVWYSVAPMNVRRGLA", "note": "[A5C]", "protein stability index": 1.68}
{"variant": "WDYTADEDGVWYSVAPMNVRRGLA", "note": "[L1W]", "protein stability index": 2.53}
{"variant": "QDYTADEDGVWYSVAPMNVRRGLA", "note": "[L1Q]", "protein stability index": 4}
{"variant": "PDYTADEDGVWYSVAPMNVRRGLA", "note": "[L1P]", "protein stability index": 3.41}
{"variant": "FDYTADEDGVWYSVAPMNVRRGLA", "note": "[L1F]", "protein stability index": 2.16}
{"variant": "KDYTADEDGVWYSVAPMNVRRGLA", "note": "[L1K]", "protein stability index": 2.75}
{"variant": "GDYTADEDGVWYSVAPMNVRRGLA", "note": "[L1G]", "protein stability index": 3.19}
{"variant": "DDYTADEDGVWYSVAPMNVRRGLA", "note": "[L1D]", "protein stability index": 3.47}
{"variant": "RDYTADEDGVWYSVAPMNVRRGLA", "note": "[L1R]", "protein stability index": 2.99}
{"variant": "TDYTADEDGVWYSVAPMNVRRGLA", "note": "[L1T]", "protein stability index": 3.18}
{"variant": "CDYTADEDGVWYSVAPMNVRRGLA", "note": "[L1C]", "protein stability index": 2.75}
{"variant": "EDYTADEDGVWYSVAPMNVRRGLA", "note": "[L1E]", "protein stability index": 3.53}
{"variant": "IDYTADEDGVWYSVAPMNVRRGLA", "note": "[L1I]", "protein stability index": 1.89}
{"variant": "MDYTADEDGVWYSVAPMNVRRGLA", "note": "[L1M]", "protein stability index": 2.2}
{"variant": "VDYTADEDGVWYSVAPMNVRRGLA", "note": "[L1V]", "protein stability index": 2.25}
{"variant": "NDYTADEDGVWYSVAPMNVRRGLA", "note": "[L1N]", "protein stability index": 3.92}
{"variant": "HDYTADEDGVWYSVAPMNVRRGLA", "note": "[L1H]", "protein stability index": 2.67}
{"variant": "ADYTADEDGVWYSVAPMNVRRGLA", "note": "[L1A]", "protein stability index": 3.26}
{"variant": "YDYTADEDGVWYSVAPMNVRRGLA", "note": "[L1Y]", "protein stability index": 2.32}
{"variant": "SDYTADEDGVWYSVAPMNVRRGLA", "note": "[L1S]", "protein stability index": 3.24}
{"variant": "LDYIADEDGVWYSVAPMNVRRGLA", "note": "[T4I]", "protein stability index": 2.12}
{"variant": "LDYLADEDGVWYSVAPMNVRRGLA", "note": "[T4L]", "protein stability index": 4.91}
{"variant": "LDYFADEDGVWYSVAPMNVRRGLA", "note": "[T4F]", "protein stability index": 1.7}
{"variant": "LDYSADEDGVWYSVAPMNVRRGLA", "note": "[T4S]", "protein stability index": 2.81}
{"variant": "LDYAADEDGVWYSVAPMNVRRGLA", "note": "[T4A]", "protein stability index": 2.24}
{"variant": "LDYMADEDGVWYSVAPMNVRRGLA", "note": "[T4M]", "protein stability index": 2.48}
{"variant": "LDYKADEDGVWYSVAPMNVRRGLA", "note": "[T4K]", "protein stability index": 2.57}
{"variant": "LDYVADEDGVWYSVAPMNVRRGLA", "note": "[T4V]", "protein stability index": 1.98}
{"variant": "LDYDADEDGVWYSVAPMNVRRGLA", "note": "[T4D]", "protein stability index": 2.41}
{"variant": "LDYGADEDGVWYSVAPMNVRRGLA", "note": "[T4G]", "protein stability index": 2.1}
{"variant": "LDYYADEDGVWYSVAPMNVRRGLA", "note": "[T4Y]", "protein stability index": 2.57}
{"variant": "LDYRADEDGVWYSVAPMNVRRGLA", "note": "[T4R]", "protein stability index": 1.51}
{"variant": "LDYEADEDGVWYSVAPMNVRRGLA", "note": "[T4E]", "protein stability index": 2.69}
{"variant": "LDYHADEDGVWYSVAPMNVRRGLA", "note": "[T4H]", "protein stability index": 1.77}
{"variant": "LDYWADEDGVWYSVAPMNVRRGLA", "note": "[T4W]", "protein stability index": 1.74}
{"variant": "LDYCADEDGVWYSVAPMNVRRGLA", "note": "[T4C]", "protein stability index": 1.98}
{"variant": "LDYQADEDGVWYSVAPMNVRRGLA", "note": "[T4Q]", "protein stability index": 2.45}
{"variant": "LDYPADEDGVWYSVAPMNVRRGLA", "note": "[T4P]", "protein stability index": 3.09}
{"variant": "LDYNADEDGVWYSVAPMNVRRGLA", "note": "[T4N]", "protein stability index": 2.24}
{"variant": "LDITADEDGVWYSVAPMNVRRGLA", "note": "[Y3I]", "protein stability index": 1.85}
{"variant": "LDGTADEDGVWYSVAPMNVRRGLA", "note": "[Y3G]", "protein stability index": 3.22}
{"variant": "LDPTADEDGVWYSVAPMNVRRGLA", "note": "[Y3P]", "protein stability index": 3.6}
{"variant": "LDMTADEDGVWYSVAPMNVRRGLA", "note": "[Y3M]", "protein stability index": 2.33}
{"variant": "LDSTADEDGVWYSVAPMNVRRGLA", "note": "[Y3S]", "protein stability index": 3.61}
{"variant": "LDNTADEDGVWYSVAPMNVRRGLA", "note": "[Y3N]", "protein stability index": 3.78}
{"variant": "LDDTADEDGVWYSVAPMNVRRGLA", "note": "[Y3D]", "protein stability index": 3.35}
{"variant": "LDTTADEDGVWYSVAPMNVRRGLA", "note": "[Y3T]", "protein stability index": 3.01}
{"variant": "LDETADEDGVWYSVAPMNVRRGLA", "note": "[Y3E]", "protein stability index": 3.6}
{"variant": "LDCTADEDGVWYSVAPMNVRRGLA", "note": "[Y3C]", "protein stability index": 2.47}
{"variant": "LDVTADEDGVWYSVAPMNVRRGLA", "note": "[Y3V]", "protein stability index": 1.78}
{"variant": "LDKTADEDGVWYSVAPMNVRRGLA", "note": "[Y3K]", "protein stability index": 3.58}
{"variant": "LDFTADEDGVWYSVAPMNVRRGLA", "note": "[Y3F]", "protein stability index": 2.29}
{"variant": "LDHTADEDGVWYSVAPMNVRRGLA", "note": "[Y3H]", "protein stability index": 3.43}
{"variant": "LDRTADEDGVWYSVAPMNVRRGLA", "note": "[Y3R]", "protein stability index": 2.99}
{"variant": "LDWTADEDGVWYSVAPMNVRRGLA", "note": "[Y3W]", "protein stability index": 1.94}
{"variant": "LDATADEDGVWYSVAPMNVRRGLA", "note": "[Y3A]", "protein stability index": 3.65}
{"variant": "LDQTADEDGVWYSVAPMNVRRGLA", "note": "[Y3Q]", "protein stability index": 3.69}
{"variant": "LDLTADEDGVWYSVAPMNVRRGLA", "note": "[Y3L]", "protein stability index": 2.22}
{"variants_of": "B2", "assay": "protein stability index of a GFP-peptide fusion (GPS, HEK-293T) (PSI 1-6); higher = more stable", "conditions": "c terminus: a fixed tail appended"}
{"variant": "GVSKVGLRKIIDFIPTAKLSLNMD", "note": "[Y15P]", "protein stability index": 1.84}
{"variant": "GVSKVGLRKIIDFIMTAKLSLNMD", "note": "[Y15M]", "protein stability index": 2.48}
{"variant": "GVSKVGLRKIIDFINTAKLSLNMD", "note": "[Y15N]", "protein stability index": 4.89}
{"variant": "GVSKVGLRKIIDFIDTAKLSLNMD", "note": "[Y15D]", "protein stability index": 1.8}
{"variant": "GVSKVGLRKIIDFIFTAKLSLNMD", "note": "[Y15F]", "protein stability index": 3.84}
{"variant": "GVSKVGLRKIIDFIRTAKLSLNMD", "note": "[Y15R]", "protein stability index": 4.12}
{"variant": "GVSWVGLRKIIDFIYTAKLSLNMD", "note": "[K4W]", "protein stability index": 2.34}
{"variant": "GVSRVGLRKIIDFIYTAKLSLNMD", "note": "[K4R]", "protein stability index": 2.95}
{"variant": "GVSNVGLRKIIDFIYTAKLSLNMD", "note": "[K4N]", "protein stability index": 2.24}
{"variant": "GVSCVGLRKIIDFIYTAKLSLNMD", "note": "[K4C]", "protein stability index": 2.64}
{"variant": "GVSSVGLRKIIDFIYTAKLSLNMD", "note": "[K4S]", "protein stability index": 2.88}
{"variant": "GVSLVGLRKIIDFIYTAKLSLNMD", "note": "[K4L]", "protein stability index": 1.93}
{"variant": "GVSAVGLRKIIDFIYTAKLSLNMD", "note": "[K4A]", "protein stability index": 3.12}
{"variant": "GVSKVKLRKIIDFIYTAKLSLNMD", "note": "[G6K]", "protein stability index": 2.84}
{"variant": "GVSKVHLRKIIDFIYTAKLSLNMD", "note": "[G6H]", "protein stability index": 3.04}
{"variant": "GVSKVPLRKIIDFIYTAKLSLNMD", "note": "[G6P]", "protein stability index": 2.12}
